The results in this text go back to article PMC10819331.

For this series, the system named is T1, MBP-Z3495 (LysR-type regulator) (Escherichia coli O157:H7 EDL933?), ORF:b652805f.
T1 sequence: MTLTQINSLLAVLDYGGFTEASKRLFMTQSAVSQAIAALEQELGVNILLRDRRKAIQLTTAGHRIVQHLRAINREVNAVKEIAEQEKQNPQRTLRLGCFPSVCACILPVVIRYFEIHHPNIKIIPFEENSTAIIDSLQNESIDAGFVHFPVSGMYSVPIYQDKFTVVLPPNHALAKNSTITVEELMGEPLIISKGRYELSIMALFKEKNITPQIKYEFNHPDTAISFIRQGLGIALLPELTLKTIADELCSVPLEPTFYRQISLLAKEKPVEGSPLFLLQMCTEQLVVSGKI
In words: EMSA.
For the sequence “GTTATCGCAGGGAGCCACACAGCGTGTGTTGGACGCGACTCAGCTTTACCTTGGTGAGATTGGTTATTCACCACTGTTAACGGCCGAAGAAGAAGTTTATTTTGCGCGTCGCGCACTGCGTGGAGATGTCGCCTCTCGCCGCCGGATGATCGAGAGTAACTTGCGTCTGGTGGTAAAA (double strand) [rpoS fragment]”, the binding result is given as “no binding”.
On to “TAAAAACTCTTCAACGTTTCTTTTAACTAAAAGATTCATCTGCAGGCTCTGAAGTAAGTATACGTGTGAATATTATTGCTTGAAAAAGCGTATTGGATAATATATACAGTATATGTACTTTATGTACATTGCAACTATTTAAATAATATAATAGTTGCCTATGGGATAATTTGGTTATTTATAACCAGGTAAATGTCTAAATTAGACAAAAGGAGAAAGATCAATGGAAGCAGCAAATTTAAGTCCTTCTGGTGCAGTAATGCCGCTGGCGACCTCACTCA (double strand) [LEE2/3 promoter]”, for which the binding entry is “no binding”.
Consider “AATTCCCGATTACGCATCGCACCATTGAGAAGTTTTATTTTATATGAGGATAACATTTTTAAATTTTATTCATCCTGGTGGTTGAACAATGAGAAAAAATATGGTGAACTTACATCGTCTAAGAATAGAGTAGAAAGGAAGCTGTTGTACAGTACTATTTAATGGAATATTCATAATTAAT (double strand) [LEE4 promoter]”, for which the binding entry was “no binding”.
